Source: patent US20220185900A1
Positions count from the first letter of the chain named.

Biological target: human RET on cells (MCF7/SRE-Luc; HEK293/hGFRα3/hRET/SRE-Luc; HEK293/hGFRα1/hRET/SRE-Luc) (human), P07949
Assay: cell-based or functional assay

B1: H4H8062P (antibody, human IgG4, V domains shown)
VH: EVQLVESGGGLVQPGGSLRLSCSVSGFIFKNYAMRWVRQAPGKGLEWVSGISGSGGITYYADSVRGRVTISRDNSKNTLDLQMTNLRAEDTAVYYCAKAEYSSSGAYFDYWGQGTLVTVSS
VL: DIQMTQSPSSLSASVGDRVTITCRASQSIHNYLNWYLQRPGKAPKLLVYAASSLQSGVPSRFSGRGSGTDFTLTISSLQPEDFATYYCQQSYSAPYSFGQGTKLEIK
- Internalization (% H4H8087P), HEK293/hGFRa1/hRET/SRE-Luc cells, 37 C: 44.9%
- MCF7/SRE-Luc % Activation: 0%
- MCF7/SRE-Luc Avg % Blocking: 100%
- MCF7/SRE-luc Avg. IC50: 5.2 nM

B2: H4H8076P (antibody, human IgG4, V domains shown)
VH: QVQLQQSGPGLVKPSQTLSLTCAISGDSVSSNSVAWNWIRQSPSRGLEWLGRTYYRSNWYNTYAVSVKSRITIDPDTSKNQFSLQLNSVTPEDTALYYCARGHRYSGSYFDYWGQGTLVTVSS
VL: DIQMTQSPSSLSASVGDRVTITCRASQNINSYFNWYQQKPGKAPKLLIYAASSLQSGVPSRFSGGGSGTDFTLTISSLQPEDFATYYCQQTYTIPWTFGQGTKVEIK
- MCF7/SRE-Luc % Activation: 3%
- MCF7/SRE-Luc Avg % Blocking: 74%
- MCF7/SRE-luc Avg. IC50: 55.7 nM

B3: H4H8056P (antibody, human IgG4, V domains shown)
VH: QVQLVESGGGVVQPGRSLRLSCAASGFTFRNYGMHWVRQAPGKGLEWVAVKRYDGSDEYFVDSVKGRFTISRDNSKNTLFLQMNSLRVDDTAVYYCARETPITGTTLDYWGQGTLVTVSS
VL: DIQMTQSPSSLSASVGDRVTITCRTSQSITNYLNWYQQKPGKAPKLLIYAASRSQSGVPSRFSGSGSGTDFTLTISSLQPEDFATYYCQQSYSTPLTFGGGTKVEIK
- MCF7/SRE-Luc % Activation: 0%
- MCF7/SRE-Luc Avg % Blocking: 73%
- MCF7/SRE-luc Avg. IC50: 2 nM

B4: H4H8058P (antibody, human IgG4, V domains shown)
VH: QVQLVESGGGVGQPGRSLRLSCVASGFTFRNYGMHWVRQAPGKGLDWVAIIGYDGSKEYNVDSVKGRFTISRDNSKNTLYLQMNSLGAEDTAIYYCARESPITGTTFDYWGQGTLVTVSS
VL: B3 VL with S9P, T25A, T30G, L46I, S54L
- Internalization (% H4H8087P), HEK293/hGFRa1/hRET/SRE-Luc cells, 37 C: 42%
- MCF7/SRE-Luc % Activation: 0%
- MCF7/SRE-Luc Avg % Blocking: 85%
- MCF7/SRE-luc Avg. IC50: 5.4 nM

B5: H2M7086N (antibody, mouse IgG2, V domains shown)
VH: QVQLVESGGGVVQPGRSLRLSCVVSGFTFSNYGMHWVRQGPGRGLEWLALIWYDGSDKYYAESVRGRFTISRDNSKNTVYLQMNSLRAEDTAMYYCTRDRIFDYWGQGTLVTVSS
VL: AIQMTQSPSSLSASVGDRVTITCRASQDIRNDLGWYQHNPGKAPNLLIYAASTLQIGVPSRFRGSGSGTDFTLTISSLQPEDFATYYCLQDFDYPLSFGGGTKVEIR
- 293/hGFRα3/hRET SRE-luc % Blocking: 98%
- 293/hGFRα3/hRET/SRE-Luc IC50: 4 nM
- MCF7/SRE-Luc % Activation: 0%
- MCF7/SRE-Luc Avg % Blocking: 100%
- MCF7/SRE-luc Avg. IC50: 2.6 nM

B6: H4H8083P (antibody, human IgG4, V domains shown)
VH: QVQLVESGGGVVQPGRSLRLSCAASGFTFNNYVMHWVRQAPGKGLEWVALIWYDGSNKYYADSVKGRFTISRDNSKNALNLQMNSLRAEDTAVYFCARVSIAARNYYYGGLDVWGQGTTVTVSS
VL: EIVLTQSPGTLSLSPGERATLSCRASQSVSSTYLAWYQQKPGQAPRLLIYGASSRATGIPDRFSGSGSGTDFTLTISRLEPEDFAVYYCQHYGGSPLTFGGGTKVEIK
- 293/hGFRα3/hRET SRE-luc % Blocking: 81%
- 293/hGFRα3/hRET/SRE-Luc IC50: 57 nM
- MCF7/SRE-Luc % Activation: 0%
- MCF7/SRE-Luc Avg % Blocking: 68%
- MCF7/SRE-luc Avg. IC50: > 100 nM

B7: H4H8067P (antibody, human IgG4, V domains shown)
VH: QVQLVESGGGVVQPGRSLRLSCVASGFTFSNYGMHWVRQAPGKGLEWVALIWYDGSNKYFADSVKGRFTISRDNSKRMMFLEMNSLRAEDTAIYYCTRDRLFDFWGQGTLVTVSS
VL: AIQMTQSPSSLSASVGDRVSITCRASQDIRHDLGWFHQKPGKAPKLLIYAASTLQSGVPSRFGGSGSGTDFTLTITSLQPEDFGTYYCLQDYNYPATFGQGTRLEIK
- 293/hGFRα3/hRET SRE-luc % Blocking: 99%
- 293/hGFRα3/hRET/SRE-Luc IC50: 4.8 nM
- Internalization (% H4H8087P), HEK293/hGFRa1/hRET/SRE-Luc cells, 37 C: 58.2%
- MCF7/SRE-Luc % Activation: 0%
- MCF7/SRE-Luc Avg % Blocking: 91%
- MCF7/SRE-luc Avg. IC50: 3.8 nM

B8: H4H8085P (antibody, human IgG4, V domains shown)
VH: QVQLVESGGGVVQPGRSLRLSCTASGFTFDNYGMHWVRQAPGKGLEWVAVISYDGSNTFYADSVKGRFTISRDNSKNALYLQMNSLRAEDTAVYYCAKDLEFDILIGYPFDSWGRGTLVTVSS
VL: DIQLTQSPSFLSASVGDRVTITCWASQDISRYLAWYQQKPGKAPNLLIYAASTLQSGVPSRFSGSGSGTEFTLTINSLQPEDFATYYCQQLFSYPRTFGQGTKVEIK
- 293/hGFRα3/hRET SRE-luc % Blocking: 72%
- 293/hGFRα3/hRET/SRE-Luc IC50: 127 nM
- MCF7/SRE-Luc % Activation: 47%
- MCF7/SRE-Luc Avg % Blocking: 0%
- luciferase activity in MCF7/SRE-Luc, % of the levels observed with GDNF: 50%

B9: H4H8060P (antibody, human IgG4, V domains shown)
VH: QVTLKESGPVLVKPTETLTLTCTVSGFSLSSARMGVSWIRQPPGKALEWLAHIFSTDEKSYSTSLKSRLSISKDTSLSQVVLIMTNMDPVDTATYYCARRTTMAPYYYYYGMDVWGHGTTVTVSS
VL: AIQMTQSPASLSASVGDRVTITCRASQGIRNDLGWYQQKPGKAPKLLISAASSLQSGVPSRFSGSGSGTDFTLTISSLQPEDFATYYCLQDYKYPWTFGQGTKVEIK
- MCF7/SRE-Luc % Activation: 0%
- MCF7/SRE-Luc Avg % Blocking: 87%
- MCF7/SRE-luc Avg. IC50: > 100 nM

B10: H4H8087P (antibody, human IgG4, V domains shown)
VH: QVQLVESGGGVVQPGRSLRLSCAASGFSFSSYGMHWVRQAPGKGLEWVAVMWYDGSNEYYADSVKGRFIISRDNSKSTLYLEMNSLRAEDTALYYCAREDWDEGYYYGMDVWGQGTTVTVSS
VL: DIQMTQSPSSLFASVGDRVTITCRASQDIRYDLGWYQQKPGKAPKRLIYASSILESGVPSRFSGSGSGTEYTLTISTLQSEDFAIYYCLQHNSFPWTFGQGTKVEIK
- 293/hGFRα3/hRET SRE-luc % Blocking: 100%
- 293/hGFRα3/hRET/SRE-Luc IC50: 0.25 nM
- Internalization (% H4H8087P), HEK293/hGFRa1/hRET/SRE-Luc cells, 37 C: 100%
- MCF7/SRE-Luc % Activation: 0%
- MCF7/SRE-Luc Avg % Blocking: 100%
- MCF7/SRE-luc Avg. IC50: 0.25 nM

B11: H4H8080P (antibody, human IgG4, V domains shown)
VH: EVQLVESGGGLVQSGGSLRLSCVASGFTFSTYAMTWVRQAPGRGLEWVSAISGSGASTYYADSLKGRFTVSRDNSKNTLYLQMNSLRAEDTAVYYCSKDHRNYDSDYDMDVWGQGTTVTVSS
VL: DIQMTQSPSSLSASVGDRVTITCRASQGIRNYLGWYQQKPGKAPKRLIYTASSLQSGVPSRFRGSGSGTEFTLTISSLQPEDFATYYCLQHNSYPYTFGQGTKLEIK
- 293/hGFRα3/hRET SRE-luc % Blocking: 57%
- 293/hGFRα3/hRET/SRE-Luc IC50: 341 nM
- MCF7/SRE-Luc % Activation: 0%
- MCF7/SRE-Luc Avg % Blocking: 41%
- MCF7/SRE-luc Avg. IC50: > 100 nM

B12: H4H8084P (antibody, human IgG4, V domains shown)
VH: QVQLVESGGGVVQPGRSLRLSCEASGFTFRNYGMHWVRQAPGKGLDWVSTIYYDGSDEYYSDSVKGRFTISRDNSKNTLYLQMNSLRAEDTAVYYCARDPPSFRYFDYWGQGTLVTVSS
VL: DIQMTQSPSTLSASVGDRVTITCRASQSIRSWLTWYQQKPGKAPKVLIYKASTLERGVPSRFSGSGSGTEFTLTISSLQPEDFATYYCHQYSSYSYTFGQGTKLEIK
- 293/hGFRα3/hRET SRE-luc % Blocking: 94%
- 293/hGFRα3/hRET/SRE-Luc IC50: 2.1 nM
- MCF7/SRE-Luc % Activation: 0%
- MCF7/SRE-Luc Avg % Blocking: 100%
- MCF7/SRE-luc Avg. IC50: 10.4 nM

B13: H4H8046P (antibody, human IgG4, V domains shown)
VH: QVQLVQSRDEVKKPGASVKVSCKASGYTFTTYGISWVRQAPGQGLEWMGWINTYNGDTNYAQKVQDRVIMTTDTSTSTAYMELRSLRSDDTAVYFCAGARPLGGRRAFDIWGQGTMVTVSS
VL: DIQMTQSPSSLSASVGDRVTITCRASQGISHYLAWYQQKPGKVPKLLIYAASTLQSGVPSRFSGSGSGTDFTLTISSLQPEDVATYYCQKYNSVPWTFGQGTKVEIK
- 293/hGFRα3/hRET SRE-luc % Blocking: 91%
- 293/hGFRα3/hRET/SRE-Luc IC50: 11.8 nM
- MCF7/SRE-Luc % Activation: 5%
- MCF7/SRE-Luc Avg % Blocking: 78%
- MCF7/SRE-luc Avg. IC50: 44 nM

B14: H4H8066P (antibody, human IgG4, V domains shown)
VH: EVQLVESGGGLVQPGGSLRLSCEASGFTFSRYAMTWVRQAPGKGLEWVSGISGSGGSTFYVDSLQGRFTLSRDNSKHTLFLQMNSLRAEDTAIYYCAKENTYGHFDYWGQGTLVTVSS
VL: DIQLTQSPSFLSASVGDRVTITCWASQDISTYLAWYQQKPGKAPQVLIYAASSLQYGVPSRFSGSGSGTEFTLTITSLQPEDFATYYCQQLIGYPYIFGQGTKLEIK
- 293/hGFRα3/hRET SRE-luc % Blocking: 93%
- 293/hGFRα3/hRET/SRE-Luc IC50: 1.5 nM
- MCF7/SRE-Luc % Activation: 0%
- MCF7/SRE-Luc Avg % Blocking: 60%
- MCF7/SRE-luc Avg. IC50: 0.39 nM

B15: H4H8079P (antibody, human IgG4, V domains shown)
VH: EVQLVESGGGLVKPGGSLRLSCAASGFTFSNAWMSWVRQAPGKGLEWVGRIKSKTDGGTSEYAAPVKGRFTISRDDSKNTLFLQMNSLKSEDAAVYYCTTGRSWSDYFDFWGQGTLVTVSS
VL: not shown
- 293/hGFRα3/hRET SRE-luc % Blocking: 96%
- 293/hGFRα3/hRET/SRE-Luc IC50: 0.8 nM
- Internalization (% H4H8087P), HEK293/hGFRa1/hRET/SRE-Luc cells, 37 C: 62.8%
- MCF7/SRE-Luc % Activation: 0%
- MCF7/SRE-Luc Avg % Blocking: 90%
- MCF7/SRE-luc Avg. IC50: 0.15 nM

B16: H4H8045P (antibody, human IgG4, V domains shown)
VH: EVQLVESGGALVQPGGSLRLSCAASGFTFSNYAMTWVRQAPGMGLEWVSGISSSGASTFYADSVKGRFTISRDNSKNTLYLQMNSLRAEDTAVYYCAKEDYWGWFDYWGQGTLVTVSS
VL: DIQLTQSPSFLSASVGDRVTITCWASQDVSSYLAWYQQEPGKAPKVLIYDASTLQSGVPSRFSGSGSGTEFTLTISSLQPEDFAPYYCQQLNSYPYTFGQGTKLEIK
- 293/hGFRα3/hRET SRE-luc % Blocking: 96%
- 293/hGFRα3/hRET/SRE-Luc IC50: 0.42 nM
- MCF7/SRE-Luc % Activation: 0%
- MCF7/SRE-Luc Avg % Blocking: 69%
- MCF7/SRE-luc Avg. IC50: 0.14 nM

B17: H4H8071P (antibody, human IgG4, V domains shown)
VH: EVQLVESGGGLVQPGGSLRLSCAASGFTFTTYFMSWVRQAPGKGLEWVSGISGSGTSTFYVDSMKGRFTISRDNSKNTLYLQMNSLRVEDTAVYFCAKENTYGHFDFWGQGTLVTVSS
VL: B16 VL with V29I, Y32H, E39K, F62I, P85A, N92D, S93G
- MCF7/SRE-Luc % Activation: 0%
- MCF7/SRE-Luc Avg % Blocking: 84%
- MCF7/SRE-luc Avg. IC50: 0.45 nM
